Assay results as given in patent US20240100134.

Experiments:
[1] = molecular target: recombinant plasminogen-linker-Fc fusion (human plasminogen, QA linker GQAGQAS, Fc)
[2] = molecular target: T1, recombinant human plasminogen (not fused to Fc, wild-type)
T1 chain: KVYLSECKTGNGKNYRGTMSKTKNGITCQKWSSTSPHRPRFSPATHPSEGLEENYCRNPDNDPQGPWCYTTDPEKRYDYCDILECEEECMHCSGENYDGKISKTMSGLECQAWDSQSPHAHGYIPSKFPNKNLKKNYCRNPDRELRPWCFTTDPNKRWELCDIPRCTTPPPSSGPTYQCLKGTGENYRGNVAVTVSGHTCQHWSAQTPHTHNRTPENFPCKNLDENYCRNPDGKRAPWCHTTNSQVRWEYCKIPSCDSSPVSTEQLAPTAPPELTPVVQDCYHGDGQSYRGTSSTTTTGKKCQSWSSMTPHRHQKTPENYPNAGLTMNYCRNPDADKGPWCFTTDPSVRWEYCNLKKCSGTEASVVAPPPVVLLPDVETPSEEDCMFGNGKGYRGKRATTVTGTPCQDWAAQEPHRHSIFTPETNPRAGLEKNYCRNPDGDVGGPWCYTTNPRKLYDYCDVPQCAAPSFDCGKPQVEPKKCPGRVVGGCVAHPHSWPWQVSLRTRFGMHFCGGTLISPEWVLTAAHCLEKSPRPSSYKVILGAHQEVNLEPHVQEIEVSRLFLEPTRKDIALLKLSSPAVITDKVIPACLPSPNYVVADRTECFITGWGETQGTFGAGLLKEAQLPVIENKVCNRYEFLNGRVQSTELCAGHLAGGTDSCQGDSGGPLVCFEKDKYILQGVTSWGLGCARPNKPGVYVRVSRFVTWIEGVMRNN

B1: tissue-type plasminogen activator (protein)
chain: SYQVICRDEKTQMIYQQHQSWLRPVLRSNRVEYCWCNSGRAQCHSVPVKSCSEPRCFNGGTCQQALYFSDFVCQCPEGFAGKCCEIDTRATCYEDQGISYRGTWSTAESGAECTNWNSSALAQKPYSGRRPDAIRLGLGNHNYCRNPDRDSKPWCYVFKAGKYSSEFCSTPACSEGNSDCYFGNGSAYRGTHSLTESGASCLPWNSMILIGKVYTAQNPSAQALGLGKHNYCRNPDGDAKPWCHVLKNRRLTWEYCDVPSCSTCGLRQYSQPQFRIKGGLFADIASHPWQAAIFAKHRRSPGERFLCGGILISSCWILSAAHCFQERFPPHHLTVILGRTYRVVPGEEEQKFEVEKYIVHKEFDDDTYDNDIALLQLKSDSSRCAQESSVVRTVCLPPADLQLPDWTECELSGYGKHEALSPFYSERLKEAHVRLYPSSRCTSQHLLNRTVTDNMLCAGDTRSGGPQANLHDACQGDSGGPLVCLNDGRMTLVGIISWGLGCGQKDVPGVYTKVTNYLDWIRDNMRP
[1]
  Michelis-Menten analysis of activation (KM and Vmax), 10 mM EACA: the kinetics of rPlg and rPlg-Fc activation are similar (as indicated by the KM and Vmax)
  activation measured by the hydrolysis of plasmin fluorogenic substrate H-Ala-Phe-Lys-AMC: In the presence of tPA or uPA, comparable hydrolytic activity for rPlg and rPlg-Fc is observed
[2]
  Michelis-Menten analysis of activation (KM and Vmax), 10 mM EACA: the kinetics of rPlg and rPlg-Fc activation are similar (as indicated by the KM and Vmax)
  activation measured by the hydrolysis of plasmin fluorogenic substrate H-Ala-Phe-Lys-AMC: In the presence of tPA or uPA, comparable hydrolytic activity for rPlg and rPlg-Fc is observed
